Test results from the supplement of paper PMC9112550, “Optimization of the antimicrobial peptide Bac7 by deep mutational scanning” (BMC Biology, 2022).
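Also: peptides expressed intracellularly from a pBAD plasmid library in pooled LB shake-flask culture, induced with 0.3% L-arabinose, DNA abundance read by NGS, three biological replicates, DESeq2 with apeglm shrinkage.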

What follows are sequences tested on Escherichia coli TOP10 (assay: shrunken log2 fold change of peptide-encoding DNA abundance (4.5 h post-induction vs induction); higher = less antimicrobial activity (less host growth inhibition)). Conditions: time post-induction: 4.5 h; library: site-saturation at positions 5, 18, 19, 20.
With RRIRSRPPRLPRPRPRPVNVPRP the “shrunken log2 fold change” value was -0.156.
With RRIRSRPPRLPRPRPRPVRDPRP the “shrunken log2 fold change” value was 0.369.
With RRIRSRPPRLPRPRPRPVSEPRP the “shrunken log2 fold change” value was -0.125.
RRIRSRPPRLPRPRPRPVVIPRP was tested, and the “shrunken log2 fold change” value was -0.429.
For RRIRSRPPRLPRPRPRPVWCPRP, the “shrunken log2 fold change” value was 0.143.
For RRIRSRPPRLPRPRPRPVWQPRP, the “shrunken log2 fold change” value was 0.168.
For RRIRSRPPRLPRPRPRPVYFPRP, the “shrunken log2 fold change” value was -0.347.
RRIRSRPPRLPRPRPRPVYGPRP was tested, and the “shrunken log2 fold change” value was -0.355.
With RRIRSRPPRLPRPRPRPWAHPRP the “shrunken log2 fold change” value was -0.186.
In the case of RRIRSRPPRLPRPRPRPWCPPRP, the “shrunken log2 fold change” value is reported as -0.549.
RRIRSRPPRLPRPRPRPWCWPRP was tested, and the “shrunken log2 fold change” value was 0.0877.
With RRIRSRPPRLPRPRPRPWEKPRP the “shrunken log2 fold change” value was -0.01.
RRIRSRPPRLPRPRPRPWGRPRP was tested, and the “shrunken log2 fold change” value was 0.196.
In the case of RRIRSRPPRLPRPRPRPWIMPRP, the “shrunken log2 fold change” value is reported as -0.572.
RRIRSRPPRLPRPRPRPWLAPRP was tested, and the “shrunken log2 fold change” value was 0.166.
With RRIRSRPPRLPRPRPRPWLVPRP the “shrunken log2 fold change” value was 0.0191.
With RRIRSRPPRLPRPRPRPWMCPRP the “shrunken log2 fold change” value was -0.391.
In the case of RRIRSRPPRLPRPRPRPWMLPRP, the “shrunken log2 fold change” value is reported as -0.14.
For RRIRSRPPRLPRPRPRPWNCPRP, the “shrunken log2 fold change” value was -0.223.
RRIRSRPPRLPRPRPRPWNKPRP was tested, and the “shrunken log2 fold change” value was -0.0158.
RRIRSRPPRLPRPRPRPWNMPRP was tested, and the “shrunken log2 fold change” value was -0.077.
In the case of RRIRSRPPRLPRPRPRPWPVPRP, the “shrunken log2 fold change” value is reported as 0.12.
For RRIRSRPPRLPRPRPRPWRPPRP, the “shrunken log2 fold change” value was 0.0563.
For RRIRSRPPRLPRPRPRPWRQPRP, the “shrunken log2 fold change” value was 0.11.
RRIRSRPPRLPRPRPRPWRTPRP was tested, and the “shrunken log2 fold change” value was 0.311.
RRIRSRPPRLPRPRPRPWSAPRP was tested, and the “shrunken log2 fold change” value was -0.027.
In the case of RRIRSRPPRLPRPRPRPWSKPRP, the “shrunken log2 fold change” value is reported as -0.405.
RRIRSRPPRLPRPRPRPWSYPRP was tested, and the “shrunken log2 fold change” value was 0.0308.
With RRIRSRPPRLPRPRPRPWTEPRP the “shrunken log2 fold change” value was -0.314.
In the case of RRIRSRPPRLPRPRPRPWVAPRP, the “shrunken log2 fold change” value is reported as 0.0561.
For RRIRSRPPRLPRPRPRPWWKPRP, the “shrunken log2 fold change” value was -0.0475.
In the case of RRIRSRPPRLPRPRPRPWYDPRP, the “shrunken log2 fold change” value is reported as -0.511.
In the case of RRIRSRPPRLPRPRPRPWYKPRP, the “shrunken log2 fold change” value is reported as -0.137.
For RRIRSRPPRLPRPRPRPWYMPRP, the “shrunken log2 fold change” value was -0.262.
With RRIRSRPPRLPRPRPRPYAAPRP the “shrunken log2 fold change” value was -0.0585.
With RRIRSRPPRLPRPRPRPYALPRP the “shrunken log2 fold change” value was -0.613.
RRIRSRPPRLPRPRPRPYCDPRP was tested, and the “shrunken log2 fold change” value was -0.225.
For RRIRSRPPRLPRPRPRPYCIPRP, the “shrunken log2 fold change” value was -0.26.
RRIRSRPPRLPRPRPRPYCWPRP was tested, and the “shrunken log2 fold change” value was -0.419.
With RRIRSRPPRLPRPRPRPYDGPRP the “shrunken log2 fold change” value was -0.203.
In the case of RRIRSRPPRLPRPRPRPYGVPRP, the “shrunken log2 fold change” value is reported as 0.0325.
In the case of RRIRSRPPRLPRPRPRPYHIPRP, the “shrunken log2 fold change” value is reported as -0.845.
In the case of RRIRSRPPRLPRPRPRPYHWPRP, the “shrunken log2 fold change” value is reported as -0.479.
RRIRSRPPRLPRPRPRPYIFPRP was tested, and the “shrunken log2 fold change” value was -0.683.
For RRIRSRPPRLPRPRPRPYKDPRP, the “shrunken log2 fold change” value was -0.716.
RRIRSRPPRLPRPRPRPYKKPRP was tested, and the “shrunken log2 fold change” value was -0.0605.
With RRIRSRPPRLPRPRPRPYLQPRP the “shrunken log2 fold change” value was -0.176.
In the case of RRIRSRPPRLPRPRPRPYLWPRP, the “shrunken log2 fold change” value is reported as -0.0115.
For RRIRSRPPRLPRPRPRPYMCPRP, the “shrunken log2 fold change” value was -0.903.
With RRIRSRPPRLPRPRPRPYNSPRP the “shrunken log2 fold change” value was -0.287.
RRIRSRPPRLPRPRPRPYPQPRP was tested, and the “shrunken log2 fold change” value was -0.267.
For RRIRSRPPRLPRPRPRPYQLPRP, the “shrunken log2 fold change” value was -0.149.
RRIRSRPPRLPRPRPRPYRAPRP was tested, and the “shrunken log2 fold change” value was -0.019.
RRIRSRPPRLPRPRPRPYSCPRP was tested, and the “shrunken log2 fold change” value was -0.386.
For RRIRSRPPRLPRPRPRPYSMPRP, the “shrunken log2 fold change” value was -0.721.
In the case of RRIRSRPPRLPRPRPRPYTHPRP, the “shrunken log2 fold change” value is reported as -1.3.
For RRIRSRPPRLPRPRPRPYTLPRP, the “shrunken log2 fold change” value was -0.146.
In the case of RRIRSRPPRLPRPRPRPYTRPRP, the “shrunken log2 fold change” value is reported as -0.304.
RRIRSRPPRLPRPRPRPYVNPRP was tested, and the “shrunken log2 fold change” value was -0.283.
For RRIRSRPPRLPRPRPRPYVVPRP, the “shrunken log2 fold change” value was -0.314.
With RRIRTRPPRLPRPRPRPAARPRP the “shrunken log2 fold change” value was 0.374.
For RRIRTRPPRLPRPRPRPACMPRP, the “shrunken log2 fold change” value was 0.0444.
For RRIRTRPPRLPRPRPRPAEHPRP, the “shrunken log2 fold change” value was -0.0944.
RRIRTRPPRLPRPRPRPAEWPRP was tested, and the “shrunken log2 fold change” value was 0.0396.
For RRIRTRPPRLPRPRPRPAFNPRP, the “shrunken log2 fold change” value was -0.121.
In the case of RRIRTRPPRLPRPRPRPAGHPRP, the “shrunken log2 fold change” value is reported as -0.0189.
With RRIRTRPPRLPRPRPRPAIKPRP the “shrunken log2 fold change” value was 0.957.
RRIRTRPPRLPRPRPRPAIWPRP was tested, and the “shrunken log2 fold change” value was 0.238.
For RRIRTRPPRLPRPRPRPANCPRP, the “shrunken log2 fold change” value was -0.0321.
For RRIRTRPPRLPRPRPRPAPCPRP, the “shrunken log2 fold change” value was 0.18.
With RRIRTRPPRLPRPRPRPAPEPRP the “shrunken log2 fold change” value was 0.24.
In the case of RRIRTRPPRLPRPRPRPAPMPRP, the “shrunken log2 fold change” value is reported as 0.202.
RRIRTRPPRLPRPRPRPASSPRP was tested, and the “shrunken log2 fold change” value was -0.362.
RRIRTRPPRLPRPRPRPATNPRP was tested, and the “shrunken log2 fold change” value was -0.0241.
In the case of RRIRTRPPRLPRPRPRPAVEPRP, the “shrunken log2 fold change” value is reported as -0.011.
In the case of RRIRTRPPRLPRPRPRPAYCPRP, the “shrunken log2 fold change” value is reported as -0.0119.
For RRIRTRPPRLPRPRPRPCCRPRP, the “shrunken log2 fold change” value was 0.0338.
For RRIRTRPPRLPRPRPRPCEIPRP, the “shrunken log2 fold change” value was 0.0393.
With RRIRTRPPRLPRPRPRPCHNPRP the “shrunken log2 fold change” value was -0.0285.
For RRIRTRPPRLPRPRPRPCIHPRP, the “shrunken log2 fold change” value was -0.11.
RRIRTRPPRLPRPRPRPCKMPRP was tested, and the “shrunken log2 fold change” value was -0.47.
RRIRTRPPRLPRPRPRPCLYPRP was tested, and the “shrunken log2 fold change” value was -0.342.
RRIRTRPPRLPRPRPRPCQPPRP was tested, and the “shrunken log2 fold change” value was -0.387.
RRIRTRPPRLPRPRPRPCRKPRP was tested, and the “shrunken log2 fold change” value was -0.0644.
RRIRTRPPRLPRPRPRPCSIPRP was tested, and the “shrunken log2 fold change” value was -0.472.
For RRIRTRPPRLPRPRPRPCSSPRP, the “shrunken log2 fold change” value was -0.0634.
In the case of RRIRTRPPRLPRPRPRPCSWPRP, the “shrunken log2 fold change” value is reported as 0.0291.
For RRIRTRPPRLPRPRPRPCTDPRP, the “shrunken log2 fold change” value was -0.502.
With RRIRTRPPRLPRPRPRPCTYPRP the “shrunken log2 fold change” value was -0.326.
In the case of RRIRTRPPRLPRPRPRPCVEPRP, the “shrunken log2 fold change” value is reported as -0.0492.
In the case of RRIRTRPPRLPRPRPRPCVVPRP, the “shrunken log2 fold change” value is reported as -0.0223.
With RRIRTRPPRLPRPRPRPCWEPRP the “shrunken log2 fold change” value was 0.203.
In the case of RRIRTRPPRLPRPRPRPCWMPRP, the “shrunken log2 fold change” value is reported as -0.259.
For RRIRTRPPRLPRPRPRPDCEPRP, the “shrunken log2 fold change” value was 0.0084.
For RRIRTRPPRLPRPRPRPDCSPRP, the “shrunken log2 fold change” value was -0.239.
For RRIRTRPPRLPRPRPRPDGDPRP, the “shrunken log2 fold change” value was 0.052.
For RRIRTRPPRLPRPRPRPDGMPRP, the “shrunken log2 fold change” value was 0.0749.
RRIRTRPPRLPRPRPRPDLAPRP was tested, and the “shrunken log2 fold change” value was 0.132.
With RRIRTRPPRLPRPRPRPDMNPRP the “shrunken log2 fold change” value was -0.0432.
RRIRTRPPRLPRPRPRPDNIPRP was tested, and the “shrunken log2 fold change” value was -0.38.
For RRIRTRPPRLPRPRPRPDRHPRP, the “shrunken log2 fold change” value was -0.143.
In the case of RRIRTRPPRLPRPRPRPDTWPRP, the “shrunken log2 fold change” value is reported as 0.0221.
With RRIRTRPPRLPRPRPRPDYFPRP the “shrunken log2 fold change” value was -0.153.
RRIRTRPPRLPRPRPRPDYNPRP was tested, and the “shrunken log2 fold change” value was -0.0768.
With RRIRTRPPRLPRPRPRPEAEPRP the “shrunken log2 fold change” value was 0.0438.
RRIRTRPPRLPRPRPRPEAFPRP was tested, and the “shrunken log2 fold change” value was 0.0195.
RRIRTRPPRLPRPRPRPEAGPRP was tested, and the “shrunken log2 fold change” value was 0.286.
In the case of RRIRTRPPRLPRPRPRPEAKPRP, the “shrunken log2 fold change” value is reported as -0.0276.
RRIRTRPPRLPRPRPRPECFPRP was tested, and the “shrunken log2 fold change” value was 0.146.
